Experimental data as given in patent US20030119733A1, “Compositions and methods for inhibiting hepatocyte invasion by malarial sporozoites” (New York University, priority 1992, published 2003).

Assays:
[1] = Solid phase binding assay, sulfatide; settings: lipid dried into microtiter wells
Procedure: (§1) Solid phase binding assays: Thirty μl of lipids or steroids dissolved in methanol (20-250 μg/ml) were dried into wells of microassay plates (Cat.# 3911—Falcon—Oxnard, Calif.). The plates were then blocked with 1% BSA/PBS pH 7.4 (BSA/PBS) for 30 minutes. Wells were incubated with recombinant protein (or with parasite extract) in PBS/BSA for 1 hour, washed 3 times with BSA/PBS, incubated for 1 hour with monoclonal antibodies 2F2 or 2A10 in BSA/PBS, washed 3 times, and then incubated with (10^5 cpm/well) ^125I protein A (Amersham Corp., Arlington Hts., Ill.). In the case of the P. berghei CS protein, wells were incubated with ^125I labelled mAb 3D11. Wells were washed again and the bound radioactive protein was counted in an LKB gamma-counter (model #1260, Pharmacia, Inc., Gaithersburg, Md.). For inhibition assays, the recombinant proteins were mixed with dilutions of the various polymers in BSA/PBS, the mixture was loaded into the wells of the microtiter plates, and the binding assay performed as above. See also, Roberts, et al. J. Biol. Chem. 260:9405-9411, 1985.
(§2) 1.4 nmol of sulfatide (open squares), cholesterol-3-sulfate (closed triangles), galactocerebroside I (closed circles), galactocerebroside II (open circles) and cholesterol (open triangles) were evaporated into microtiter wells and then incubated with serial dilutions of Vivax-2. […]

[2] = Solid phase binding assay, cholesterol-3-sulfate; settings: steroid dried into microtiter wells
Procedure: as §1, §2

rat liver sections = assay: Staining of frozen tissue sections with recombinant CS polypeptides; assay type: binding; settings: revealed with MAb 2A10, fluorescence; CS27IVC 50-5 μg/ml, Falciparum-2 25 μg/ml, Falciparum-1 up to 250 μg/ml
Procedure: The procedure was carried out essentially as described by Dukor P. et al., Proc. Natl. Acad. Sci. USA 67:991-997, 1970 and Imai Y. et al., J. Cell. Biol. 111:1225-1232, 1990. Rats were euthanized with CO2. Small pieces of the liver, spleen, heart, brain and lung were removed, snap frozen in liquid nitrogen, embedded in Tissue Tek O.C.T. (Miles, Inc., Naperville, Ill.), and cut into 5 μm sections. Sections were dried for 30 min., fixed for 10 min. in 4% paraformaldehyde, rinsed three times with phosphate-buffered saline (PBS), and either used immediately or stored at 4° C. in 1% BSA, 0.5% Tween, PBS (BSA/TPBS). After blocking with 100 mM glycine (pH 7.2) and with BSA/TPBS, the sections were sequentially incubated at 37° C. with recombinant proteins for 1 hr, 10 μg/ml MAb 2A10 for 45 min., and rat anti-mouse immunoglobulin conjugated to fluorescein isothiocyanate (Boehringer Mannheim, Indianapolis, Ind.) for 45 min. The slides were counterstained for 10 min. with 0.3% Evans blue, rinsed extensively in PBS, and finally observed under a fluorescence microscope. For peptide inhibition experiments, the sections were first incubated with the peptide at various concentrations in BSA/TPBS for 1 hour at 37° C., washed six times with BSA/TPBS, and then stained with 2.5 μg/ml CS recombinant protein as described above. In a few experiments, the tissues were fixed for 10 min. with methanol, acetone, or 4% paraformaldehyde containing 0.5% glutaraldehyde.
Frozen sections of various rat organs were incubated with recombinant CS27IVC polypeptide. […] The staining closely followed the sinusoidal spaces of the hepatic lobules, indicating CS binding to the hepatocyte membrane. Other areas of the liver sections and sections of other organs (spleen, lung, heart or brain) were not stained. Control sections (incubated with CS27IVC in the absence of antibody or vice versa) were not stained either.
To define the region of the CS that mediates the perisinusoidal staining various other recombinant constructs were also used in the frozen section assay.

[3] = system: hepatocyte microvilli in the Space of Disse; assay: Electron immunomicroscopy of liver sections; assay type: binding, rat; settings: MAb 2A10 and gold conjugate
Procedure: Rat or mouse liver tissue or hepatocyte subcellular fractions from Example 2 were fixed in PBS containing 1% glutaraldehyde (grade 1, Sigma, St. Louis, Mo.) and 4% paraformaldehyde (Kodak, Rochester, N.Y.), dehydrated in ethanol, and embedded in LR White (Polysciences, Warrington, Wash.). (Frevert et al., Infect. and Immun. 60:2349-2360, June 1992.) Normal human liver was embedded in Lowicryl K4M (Ted Pella, Redding, Calif.). Ultrathin sections were labelled by incubating them sequentially with 10-50 μg/ml CS27IVC, CSFZ (Cys), Falc-2, or Falc-1 for 30 min.; 15 μg/ml MAb 2A10 for 30 min.; protein A-gold 15 nm (PAG15, 1:30; Amersham, Arlington, Ill.) or goat anti-mouse IgG gold 10 nm (GAM10, 1:30; Amersham) for 30 min. Control specimens were incubated in the absence of CS and only with the gold conjugates. Photographs were taken with a Philips EM 301 electron microscope.
To identify the hepatocyte structures interacting with the CS, glutaraldehyde-fixed and LR White-embedded thin sections of rat liver were incubated with the recombinant CS polypeptide CS27IVC, mAb 2A10 and goat anti-mouse IgG-gold and analyzed by immunoelectron microscopy. Human liver tissue embedded in K4M was also labelled with CS27IVC followed by MAb 2A10 and protein A-gold.

B1: Falciparum-2: fragment of P. falciparum CS protein with repeats and Region II+ (residues 43-391) (protein)
chain: AGTNLYNELEMNYYGKQENWYSLKKNSRSLGENDDGNNNNGDNGREGKDEDKRDGNNEDNEKLRKPKHKKLKQPGDGNPDPNANPNVDPNANPNVDPNANPNVDPNANPNANPNANPNANPNANPNANPNANPNANPNANPNANPNANPNANPNANPNANPNANPNVDPNANPNANPNANPNANPNANPNANPNANPNANPNANPNANPNANPNANPNANPNANPNANPNANPNANPNANPNANPNKNNQGNGQGHNMPNDPNRNVDENANANNAVKNNNNEEPSDKHIEQYLKKIKNSISTEWSPCSVTCGNGIQVRIKPGSANKPKDELDYENDIEKKICKMEKCSS
In the case of B1, the binding to sulfatide [1] is reported as “specifically bound sulfatide”, the “binding to cholesterol-3-sulfate” value [2] is reported as “bind” and the “binding (staining) to frozen liver sections” value (rat liver sections) is reported as “bound to the liver sections”. The “gold labelling of liver sections” value [3] was “essentially the same results but with lower staining intensity”.

B2: Falciparum-1: Same as Falciparum-2 minus most of Region II+ (P. falciparum residues 43-348) (protein)
chain: AGTNLYNELEMNYYGKQENWYSLKKNSRSLGENDDGNNNNGDNGREGKDEDKRDGNNEDNEKLRKPKHKKLKQPGDGNPDPNANPNVDPNANPNVDPNANPNVDPNANPNANPNANPNANPNANPNANPNANPNANPNANPNANPNANPNANPNANPNANPNANPNVDPNANPNANPNANPNANPNANPNANPNANPNANPNANPNANPNANPNANPNANPNANPNANPNANPNANPNANPNANPNKNNQGNGQGHNMPNDPNRNVDENANANNAVKNNNNEEPSDKHIEQYLKKIKNSISTEWSP
For B2, the binding to sulfatide [1] was “did not bind”, the “binding to cholesterol-3-sulfate” value [2] was “did not bind” and the “binding (staining) to frozen liver sections” value (rat liver sections) was “did not bind”. For the same molecule, the “gold labelling of liver sections” value [3] was “negative”.
